Changes are numbered by the printed parent chain. Numbers in names are those of the source.
B1: XPA23 Fab, heavy chain I51Y (Fab, V domains shown)
VH: EVQLLESGGGLVQPGGSLRLSCAASGFTFSKYFMFWVRQAPGKGLEWVSVYSPSGGMTRYADSVKGRFTISRDNSKNTLYLQMNSLRAEDTAVYYCARVGYGGNSDYWGQGTLVTVSS
VL: DIQMTQSPSSVSASVGDRLTIICRASQDINRWLAWYQQTPGNAPKLLIHSATSLQSGVPSRFSGSGSGTDFTLTINSLQPEDFATYYCQQADSFPLTFGGGTKVEIK
B2: XPA23 Fab, heavy chain K31R (Fab, V domains shown)
VH: B1 VH with K31R, Y51I
VL: B1 VL
B3: XPA23 Fab, heavy chain P53S (Fab, V domains shown)
VH: B1 VH with Y51I, P53S
VL: B1 VL
B4: XPA23 Fab, heavy chain N104W (Fab, V domains shown)
VH: B1 VH with Y51I, N104W
VL: B1 VL
B5: XPA23 Fab, heavy chain K31N (Fab, V domains shown)
VH: B1 VH with K31N, Y51I
VL: B1 VL
B6: XPA23 Fab, heavy chain K31Q (Fab, V domains shown)
VH: B1 VH with K31Q, Y51I
VL: B1 VL
B7: XPA23 Fab, heavy chain N104F (Fab, V domains shown)
VH: B1 VH with Y51I, N104F
VL: B1 VL
B8: XPA23 Fab, heavy chain M57D (Fab, V domains shown)
VH: B1 VH with Y51I, M57D
VL: B1 VL
B9: XPA23 Fab, heavy chain K31W (Fab, V domains shown)
VH: B1 VH with K31W, Y51I
VL: B1 VL
B10: XPA23 Fab, heavy chain P53W (Fab, V domains shown)
VH: B1 VH with Y51I, P53W
VL: B1 VL
B11: XPA23 Fab, heavy chain N104Q (Fab, V domains shown)
VH: B1 VH with Y51I, N104Q
VL: B1 VL
B12: XPA23 Fab, heavy chain P53E (Fab, V domains shown)
VH: B1 VH with Y51I, P53E
VL: B1 VL
B13: XPA23 Fab, heavy chain K31S (Fab, V domains shown)
VH: B1 VH with K31S, Y51I
VL: B1 VL
B14: XPA23 Fab, heavy chain K31F (Fab, V domains shown)
VH: B1 VH with K31F, Y51I
VL: B1 VL
B15: XPA23 Fab, heavy chain M57E (Fab, V domains shown)
VH: B1 VH with Y51I, M57E
VL: B1 VL
B16: XPA23 Fab, heavy chain R59D (Fab, V domains shown)
VH: B1 VH with Y51I, R59D
VL: B1 VL
B17: XPA23 Fab, heavy chain K31Y (Fab, V domains shown)
VH: B1 VH with K31Y, Y51I
VL: B1 VL
B18: XPA23 Fab, heavy chain P53N (Fab, V domains shown)
VH: B1 VH with Y51I, P53N
VL: B1 VL
B19: XPA23 Fab, heavy chain P53K (Fab, V domains shown)
VH: B1 VH with Y51I, P53K
VL: B1 VL
B20: XPA23 Fab, heavy chain N104K (Fab, V domains shown)
VH: B1 VH with Y51I, N104K
VL: B1 VL
B21: XPA23 Fab, heavy chain P53F (Fab, V domains shown)
VH: B1 VH with Y51I, P53F
VL: B1 VL
B22: XPA23 Fab, heavy chain N104S (Fab, V domains shown)
VH: B1 VH with Y51I, N104S
VL: B1 VL
B23: XPA23 Fab, heavy chain M57F (Fab, V domains shown)
VH: B1 VH with Y51I, M57F
VL: B1 VL
B24: XPA23 Fab, heavy chain M57H (Fab, V domains shown)
VH: B1 VH with Y51I, M57H
VL: B1 VL
B25: XPA23 Fab, heavy chain R59F (Fab, V domains shown)
VH: B1 VH with Y51I, R59F
VL: B1 VL
B26: XPA23 Fab, heavy chain N104D (Fab, V domains shown)
VH: B1 VH with Y51I, N104D
VL: B1 VL
B27: XPA23 Fab, heavy chain R59K (Fab, V domains shown)
VH: B1 VH with Y51I, R59K
VL: B1 VL
B28: XPA23 Fab, heavy chain M57S (Fab, V domains shown)
VH: B1 VH with Y51I, M57S
VL: B1 VL
B29: XPA23 Fab, heavy chain P53Y (Fab, V domains shown)
VH: B1 VH with Y51I, P53Y
VL: B1 VL
B30: XPA23 Fab, heavy chain P53H (Fab, V domains shown)
VH: B1 VH with Y51I, P53H
VL: B1 VL
B31: XPA23 Fab, heavy chain M57Y (Fab, V domains shown)
VH: B1 VH with Y51I, M57Y
VL: B1 VL
B32: XPA23 Fab, heavy chain P53D (Fab, V domains shown)
VH: B1 VH with Y51I, P53D
VL: B1 VL
B33: XPA23 Fab, heavy chain K31D (Fab, V domains shown)
VH: B1 VH with K31D, Y51I
VL: B1 VL
B34: XPA23 Fab, heavy chain N104E (Fab, V domains shown)
VH: B1 VH with Y51I, N104E
VL: B1 VL
B35: XPA23 Fab, heavy chain N104H (Fab, V domains shown)
VH: B1 VH with Y51I, N104H
VL: B1 VL
B36: XPA23 Fab, heavy chain M57N (Fab, V domains shown)
VH: B1 VH with Y51I, M57N
VL: B1 VL
B37: XPA23 Fab, heavy chain M57K (Fab, V domains shown)
VH: B1 VH with Y51I, M57K
VL: B1 VL
B38: XPA23 Fab, heavy chain R59E (Fab, V domains shown)
VH: B1 VH with Y51I, R59E
VL: B1 VL
B39: XPA23 Fab, heavy chain M57R (Fab, V domains shown)
VH: B1 VH with Y51I, M57R
VL: B1 VL
B40: XPA23 Fab, heavy chain K31E (Fab, V domains shown)
VH: B1 VH with K31E, Y51I
VL: B1 VL
B41: XPA23 Fab, heavy chain K31H (Fab, V domains shown)
VH: B1 VH with K31H, Y51I
VL: B1 VL
B42: XPA23 Fab, heavy chain N104R (Fab, V domains shown)
VH: B1 VH with Y51I, N104R
VL: B1 VL
B43: XPA23 Fab, heavy chain P53Q (Fab, V domains shown)
VH: B1 VH with Y51I, P53Q
VL: B1 VL
B44: XPA23 Fab, heavy chain N104Y (Fab, V domains shown)
VH: B1 VH with Y51I, N104Y
VL: B1 VL
B45: XPA23 Fab, heavy chain R59H (Fab, V domains shown)
VH: B1 VH with Y51I, R59H
VL: B1 VL
B46: XPA23 Fab, heavy chain M57Q (Fab, V domains shown)
VH: B1 VH with Y51I, M57Q
VL: B1 VL

target: T1, IL-1beta (UniProt P01584 117-269); test: Biacore
T1 construct: also called IL-1β

Binder	fold difference in affinity vs parental [fold]	binding result
B1	1.75	–
B2	0.9	–
B3	0.03	–
B4	–	no binding
B5	–	no binding
B6	–	no binding
B7	–	no binding
B8	–	no binding
B9	0.84	–
B10	0.05	–
B11	0.03	–
B12	0.03	–
B13	–	no binding
B14	0.05	–
B15	–	no binding
B16	–	no binding
B17	0.04	–
B18	0.06	–
B19	0.04	–
B20	–	no binding
B21	0.05	–
B22	1.02	–
B23	1.03	–

Binder	fold difference in affinity vs parental [fold]	binding result
B24	0.08	–
B25	0.92	–
B26	–	no binding
B27	0.94	–
B28	0.04	–
B29	0.03	–
B30	–	no binding
B31	0.86	–
B32	–	no binding
B33	0.04	–
B34	–	no binding
B35	0.07	–
B36	0.03	–
B37	0.04	–
B38	–	no binding
B39	0.06	–
B40	–	no binding
B41	1.11	–
B42	–	no binding
B43	0.03	–
B44	–	no binding
B45	–	no binding
B46	0.02	–
